The source of these data is article doi:10.1101/2020.04.15.043133.

One experiment has as its target C3d (human) (UniProt P01024). The experiment is described as follows: SPR.
For experiment [1], the target named is iC3b biotinylated on the thioester cysteine (UniProt P01024). Put plainly: SPR.
For experiment [2] the target is unchanged. Put plainly: SPR. The source holds these as a separate data set.
Experiment [3] deals with CR3 headpiece fragment (integrin αMβ2 headpiece) (human) (UniProt P11215). The experiment is described as follows: SEC.

Like-named read-outs stand apart in the source and are kept apart here.

For the substance “CR3 headpiece fragment (integrin αMβ2 headpiece) (from UniProt P11215 17-773; P05107 23-504) (receptor)”, the Kd was determined as 515 nM in the experiment with C3d (human), 30 nM in experiment [1] and 6.2 nM in experiment [2]. Also, in experiment [2], the fold lower koff than in the Mg2+ buffer was found to be 30 fold. The same substance registered a stoichiometry N in experiment [3] of 2.
